One assay has as its target T1, human FcγRIa (human, UniProt P12314 16-292, limits assumed).
T1 construct: also called CD64
Nature of the assay: SPR (Biacore), binding amount relative to IL6R-BF648/IL6R-L = 100.

Another assay has as its target T2, human FcγRIIa type R (human, UniProt P12318 36-217).
T2 construct: also called FcγRIIaR; FcγRIIa(R)
T2 chain: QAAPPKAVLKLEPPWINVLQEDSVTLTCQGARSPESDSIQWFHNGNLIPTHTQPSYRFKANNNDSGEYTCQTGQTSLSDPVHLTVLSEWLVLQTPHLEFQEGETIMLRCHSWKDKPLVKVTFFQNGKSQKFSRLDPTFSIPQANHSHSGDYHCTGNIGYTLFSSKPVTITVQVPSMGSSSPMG
Described as above.

In a further assay the target is T3, human FcγRIIIa type V (human, UniProt P08637 17-208, limits assumed).
T3 construct: also called FcγRIIIaV; FcγRIIIa(V)
Described as above.

The target in another assay is T4, human FcγRIIa type H (human, UniProt P12318 36-217).
T4 construct: also called FcγRIIaH; FcγRIIa(H)
T4 sequence: T2 chain with R133H
The assay is described as above.

The target in the next assay is T5, human FcγRIIb (human, UniProt P31994 43-217, limits assumed).
T5 construct: also called FcγIIB
T5 sequence: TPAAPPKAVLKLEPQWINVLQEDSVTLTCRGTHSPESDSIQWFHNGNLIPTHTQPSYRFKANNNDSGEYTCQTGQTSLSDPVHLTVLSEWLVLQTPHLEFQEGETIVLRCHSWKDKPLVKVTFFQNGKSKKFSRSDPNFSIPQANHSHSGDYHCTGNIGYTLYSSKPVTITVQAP
Described as above.

Assay [1] has as its target T6, FcγRIIb (human, UniProt P31994 43-217, limits assumed).
T6 construct: also called FcγIIB; CD32
T6 sequence: T5 sequence
Nature of the assay: SPR (Biacore), method of Example 14.
Text: Furthermore, KD(IIaR)/KD(IIb) and KD(IIaH)/KD(IIb) in the table respectively represent the value obtained by dividing the KD value of each variant for FcγRIIaR by the KD value of each variant for FcγRIIb, and the value obtained by dividing the KD value of each variant for FcγRIIaH by the KD value of each variant for FcγRIIb. KD(IIb) of the parent polypeptide/KD(IIb) of the altered polypeptide refers to the value obtained by dividing the KD value of the parent polypeptide for FcγRIIb by the KD value of each variant for FcγRIIb.

For the next assay, the target named is T7, FcγRIIa type H (human, UniProt P12318 36-217).
T7 construct: also called FcγRIIaH; FcγRIIa(H)
T7 sequence: T2 chain with R133H
Nature of the assay: SPR (Biacore), method of Example 14.

A further assay addresses T8, FcγRIIIa type V (human, UniProt P08637 17-208, limits assumed).
T8 construct: also called FcγRIIIaV; FcγRIIIa(V)
Briefly: SPR (Biacore), method of Example 14.

A further assay deals with T9, FcγRIa (human, UniProt P12314 16-292, limits assumed).
T9 construct: also called CD64
Briefly: SPR (Biacore), method of Example 14.

Assay [2] addresses T6, FcγRIIb. Briefly: ratio of SPR KD values, parent IL6R-B3/IL6R-L.
The target of the next assay is T10, FcγRIIa type R (human, UniProt P12318 36-217).
T10 construct: also called FcγRIIaR; FcγRIIa(R)
T10 chain: T2 chain
Nature of the assay: SPR (Biacore), method of Example 14.

Changes are numbered by the printed parent chain. Names and notes keep the numbering of the source.

Consider 17 molecules from patent US20200199241A1 (Chugai, published 2020).

T1 sequence (P12314 16-292 limits assumed): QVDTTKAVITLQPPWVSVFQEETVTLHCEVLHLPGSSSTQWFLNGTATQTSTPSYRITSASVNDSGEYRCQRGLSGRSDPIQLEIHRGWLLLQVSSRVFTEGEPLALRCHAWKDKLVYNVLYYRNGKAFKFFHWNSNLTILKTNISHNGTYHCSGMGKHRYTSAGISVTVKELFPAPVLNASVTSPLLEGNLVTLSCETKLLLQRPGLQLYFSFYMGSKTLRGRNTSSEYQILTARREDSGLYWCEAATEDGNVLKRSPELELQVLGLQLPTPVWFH
T3 sequence (P08637 other isoform, or with tags, fused parts or gaps limits assumed): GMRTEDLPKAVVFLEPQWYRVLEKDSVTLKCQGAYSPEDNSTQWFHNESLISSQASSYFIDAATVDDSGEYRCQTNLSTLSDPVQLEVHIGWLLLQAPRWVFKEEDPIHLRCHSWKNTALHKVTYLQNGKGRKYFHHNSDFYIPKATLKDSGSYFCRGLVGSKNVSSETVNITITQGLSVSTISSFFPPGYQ
T9 sequence (P12314 16-292 limits assumed): as the sequence (P12314 16-292 limits assumed) above
T8 sequence (P08637 17-208 F176V limits assumed): as the sequence (P08637 other isoform, or with tags, fused parts or gaps limits assumed) above, with S179A counted along it

B1: IL6R-BF648/IL6R-L (antibody, human IgG1)
heavy: not shown
light: DIQMTQSPSSLSASVGDRVTITCRASQDISSYLNWYQQKPGKAPKLLIYYTSRLHSGVPSRFSGSGSGTDFTFTISSLQPEDIATYYCQQGNTLPYTFGQGTKVEIK
notes: IL6R-B3 with P238D; also called P238D
As to B1, the relative binding with human FcγRIa, in the assay with human FcγRIIa type R, with human FcγRIIIa type V, in the assay with human FcγRIIa type H and with human FcγRIIb was 100 in each case.

B2: IL6R-B3/IL6R-L (antibody, human IgG1)
heavy: not shown
light: B1 light
notes: IL6R-G1d with K439E (EU numbering)
B2: the relative binding with human FcγRIa was found to be 145; with human FcγRIIa type R, 625; with human FcγRIIIa type V it was 3260; in the assay with human FcγRIIa type H, 1600; with human FcγRIIb, 58.

B3: IL6R-BP911/IL6R-L (antibody, human IgG1)
heavy: QVQLQESGPGLVKPSETLSLTCAVSGHSISHDHAWSWVRQPPGEGLEWIGFISYSGITNYNPSLQGRVTISRDNSKNTLYLQMNSLRAEDTAVYYCARSLARTTAMDYWGEGTLVTVSSASTKGPSVFPLAPSSKSTSGGTAALGCLVKDYFPEPVTVSWNSGALTSGVHTFPAVLQSSGLYSLSSVVTVPSSSLGTQTYICNVNHKPSNTKVDKKVEPKSCDKTHTCPPCPAPELLGGDSVFLFPPKPKDTLMISRTPEVTCVVVDVSHEDPEVKFNWYVDGVEVHNAKTKPREEQYNSTYRVVSVLTVLHQDWLNGKEYKCKVSNKALPKPIEKTISKAKGQPREPQVYTLPPSRDELTKNQVSLTCLVKGFYPSDIAVEWESNGQPENNYKTTPPVLDSDGSFFLYSKLTVDKSRWQQGNVFSCSVMHEALHNHYTQESLSLSP
light: B1 light
notes: Alteration introduced into IL6R-B3; also called P238D/A330K
On to B3, for which the relative binding in the assay with human FcγRIa was found to be 52; with human FcγRIIa type R, 101; with human FcγRIIa type H it was 108; with human FcγRIIb, 119.

B4: IL6R-BP102/IL6R-L (antibody, human IgG1)
heavy: B3 heavy with S269Q, K332A
light: B1 light
notes: Alteration introduced into IL6R-B3; also called P238D/S267Q
As to B4, the relative binding in the assay with human FcγRIa was 104; with human FcγRIIa type R, 165; in the assay with human FcγRIIIa type V, 86; with human FcγRIIa type H, 66; with human FcγRIIb it was 106.

B5: IL6R-BP107/IL6R-L (antibody, human IgG1)
heavy: B3 heavy with H270E, K332A
light: B1 light
notes: Alteration introduced into IL6R-B3; also called P238D/H268E
For B5, the relative binding with human FcγRIa stood at 123; in the assay with human FcγRIIa type R it was 147; in the assay with human FcγRIIIa type V, 129; with human FcγRIIb it was 118.

B6: IL6R-BP198/IL6R-L (antibody, human IgG1)
heavy: B3 heavy with E235D, L236Y, H270D, P273G, K328A
light: B1 light
notes: Anti-IL-6R human IgG1 variant; copies: 2 + 2
Take B6: the Kd with FcγRIIb [1] was determined as 0.2 µM; with FcγRIIa type H, 20 µM; with FcγRIIIa type V, 44 µM; in the assay with FcγRIa it was 0.011 µM. The “KD(IIb) of the parent polypeptide/KD(IIb) of altered polypeptide” value with FcγRIIb [2] amounted to 15.7 fold.

B7: IL6R-2B169/IL6R-L (antibody, human IgG1)
heavy: B3 heavy with V325I, K332A
light: B1 light
notes: Alteration introduced into IL6R-B3; also called P238D/V323I; 1L6R-2B169/IL6R-L
Regarding B7, the relative binding was 73 with human FcγRIa, 94 in the assay with human FcγRIIIa type V, 83 with human FcγRIIa type H and 104 with human FcγRIIb.

B8: IL6R-BP207/IL6R-L (antibody, human IgG1)
heavy: B3 heavy with E235D, K332R
light: B1 light
notes: as for B6
Turning to B8, the Kd in the assay with FcγRIIa type R was found to be 19 µM; with FcγRIIb [1], 0.84 µM; with FcγRIIa type H, 29 µM; with FcγRIIIa type V, 65 µM; in the assay with FcγRIa it was 0.022 µM. Further, the “KD(IIb) of the parent polypeptide/KD(IIb) of altered polypeptide” value with FcγRIIb [2] was found to be 3.7 fold.

B9: IL6R-2B002/IL6R-L (antibody, human IgG1)
heavy: B3 heavy with E235D, K332A
light: B1 light
notes: Alteration introduced into IL6R-B3; also called P238D/E233D
Take B9: the relative binding came to 118 with human FcγRIa, 103 with human FcγRIIa type R, 147 with human FcγRIIIa type V and 147 with human FcγRIIa type H.

B10: IL6R-BP136/IL6R-L (antibody, human IgG1)
heavy: B3 heavy with K328A, K332A
light: B1 light
notes: Alteration introduced into IL6R-B3; also called P238D/K326A
For B10, the relative binding came out at 117 with human FcγRIa, 159 in the assay with human FcγRIIa type R, 103 with human FcγRIIa type H and 119 with human FcγRIIb.

B11: IL6R-2B171/IL6R-L (antibody, human IgG1)
heavy: B3 heavy with V325L, K332A
light: B1 light
notes: Alteration introduced into IL6R-B3; also called P238D/V323L
B11: the relative binding with human FcγRIa is 116; with human FcγRIIa type R, 117; in the assay with human FcγRIIIa type V, 122; in the assay with human FcγRIIa type H it was 115; with human FcγRIIb, 113.

B12: IL6R-BP142/IL6R-L (antibody, human IgG1)
heavy: B3 heavy with K328N, K332A
light: B1 light
notes: Alteration introduced into IL6R-B3; also called P238D/K326N
With B12, the relative binding in the assay with human FcγRIa stood at 98; with human FcγRIIa type R it was 103; with human FcγRIIa type H, 97; with human FcγRIIb it was 106.

B13: IL6R-2B128/IL6R-L (antibody, human IgG1)
heavy: B3 heavy with Y298D, K332A
light: B1 light
notes: Alteration introduced into IL6R-B3; also called P238D/Y296D
Turning to B13, the relative binding with human FcγRIa was 95; with human FcγRIIa type R, 87; with human FcγRIIIa type V it was 96; with human FcγRIIa type H, 37; with human FcγRIIb it was 103.

B14: IL6R-BP100/IL6R-L (antibody, human IgG1)
heavy: B3 heavy with S269A, K332A
light: B1 light
notes: Alteration introduced into IL6R-B3; also called P238D/S267A
In the case of B14, the relative binding with human FcγRIa came to 121; with human FcγRIIa type R it was 197; with human FcγRIIIa type V, 138; with human FcγRIIa type H, 128; with human FcγRIIb, 110.

B15: IL6R-2B172/IL6R-L (antibody, human IgG1)
heavy: B3 heavy with V325M, K332A
light: B1 light
notes: Alteration introduced into IL6R-B3; also called P238D/V323M
For the molecule B15, the relative binding worked out at 140 with human FcγRIa; 244 in the assay with human FcγRIIa type R; 144 with human FcγRIIIa type V; 179 with human FcγRIIa type H; 132 in the assay with human FcγRIIb.

B16: IL6R-BP078/IL6R-L (antibody, human IgG1)
heavy: B3 heavy with K332M
light: B1 light
notes: Alteration introduced into IL6R-B3; also called P238D/A330M
Regarding B16, the relative binding with human FcγRIIa type R stood at 101; with human FcγRIIIa type V, 91; with human FcγRIIa type H, 89.

B17: IL6R-BP103/IL6R-L (antibody, human IgG1)
heavy: B3 heavy with S269V, K332A
light: B1 light
notes: Alteration introduced into IL6R-B3; also called P238D/S267V
Take B17: the relative binding in the assay with human FcγRIa is 56; in the assay with human FcγRIIa type R it was 163; in the assay with human FcγRIIIa type V, 77; in the assay with human FcγRIIa type H it was 69; with human FcγRIIb, 107.
